For one experiment, the target named is T1, murine FAP (mouse, UniProt P97321 27-761).
T1 construct: also called mouse FAP
Briefly: SPR simultaneous binding, figure legend (FIG. 2C). The procedure: The capacity of binding simultaneously murine 4-1BB Fc(kih) and murine FAP was assessed by surface plasmon resonance (SPR) in the manner as described in WO 2016/075278 A1. All SPR experiments were performed on a Biacore T200 at 25° C. with HBS-EP as running buffer (0.01 M HEPES pH 7.4, 0.15 M NaCl, 3 mM EDTA, 0.005% Surfactant P20, Biacore, Freiburg/Germany). Biotinylated murine 4-1BB Fc(kih) was directly coupled to a flow cell of a streptavidin (SA) sensor chip. Immobilization levels up to 600 resonance units (RU) were used.
The FAP-targeted 4-1BB constructs were passed at a concentration range of 200 nM with a flow of 30 μL/minute through the flow cells over 90 seconds and dissociation was set to zero sec. Murine FAP was injected as second analyte with a flow of 30 μL/minute through the flow cells over 90 seconds at a concentration of 500 nM. The dissociation was monitored for 120 sec. Bulk refractive index differences were corrected for by subtracting the response obtained in a reference flow cell, where no protein was immobilized.

Experiment [1] addresses T2, biotinylated murine 4-1BB Fc(kih) (murine, UniProt P20334 24-187, biotinylated).
T2 construct: also called immobilized murine 4-1BB
T2 sequence: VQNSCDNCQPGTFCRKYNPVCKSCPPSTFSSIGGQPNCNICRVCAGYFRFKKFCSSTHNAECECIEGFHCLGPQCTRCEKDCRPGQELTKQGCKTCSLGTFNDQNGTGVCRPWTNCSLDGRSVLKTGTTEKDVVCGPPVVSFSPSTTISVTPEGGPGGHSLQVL
Briefly: SPR (Biacore T200, 25 C): biotinylated murine 4-1BB Fc(kih) on SA chip, construct at 200 nM as first analyte, murine FAP at 500 nM as second analyte. Background: SPR reads the build-up and loss of mass on a sensor chip optically.

T1 sequence (P97321 27-761 limits assumed): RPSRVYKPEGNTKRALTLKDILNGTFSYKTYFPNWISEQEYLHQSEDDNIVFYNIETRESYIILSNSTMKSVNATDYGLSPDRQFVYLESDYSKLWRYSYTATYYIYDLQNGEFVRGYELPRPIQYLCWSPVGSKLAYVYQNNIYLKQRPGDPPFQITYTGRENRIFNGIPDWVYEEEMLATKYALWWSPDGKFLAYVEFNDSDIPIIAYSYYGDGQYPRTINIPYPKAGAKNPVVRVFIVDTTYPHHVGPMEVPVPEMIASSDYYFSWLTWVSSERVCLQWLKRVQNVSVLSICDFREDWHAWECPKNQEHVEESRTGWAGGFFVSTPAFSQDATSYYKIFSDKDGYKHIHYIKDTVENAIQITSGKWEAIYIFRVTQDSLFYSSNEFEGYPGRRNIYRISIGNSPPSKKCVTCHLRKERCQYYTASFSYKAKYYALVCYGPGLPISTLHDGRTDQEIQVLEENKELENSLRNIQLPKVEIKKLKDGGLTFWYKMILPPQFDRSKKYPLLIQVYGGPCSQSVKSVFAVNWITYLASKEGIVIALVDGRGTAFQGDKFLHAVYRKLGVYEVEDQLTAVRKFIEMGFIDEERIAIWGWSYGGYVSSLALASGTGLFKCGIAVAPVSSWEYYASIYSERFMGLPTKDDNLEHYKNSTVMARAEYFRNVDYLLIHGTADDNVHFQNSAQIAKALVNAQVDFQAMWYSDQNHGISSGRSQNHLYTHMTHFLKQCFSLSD

B1: 4-1BB (MU137-1)/FAP(28H1) DAPG IgG1 2+1 (Fc-DD-VL), named muFAP-4-1BB (bispecific antibody)
heavy 1: DVQLVESGGGLVQPGRSLKLSCAASGFIFSYFDMAWVRQAPTKGLEWVASISPSGDIPYYRDSVKGRFTVSRENAKSSLYLQMDSLRSEDTATYYCARRSYGGYSELDYWGQGVMVTVSSAKTTPPSVYPLAPGSAAQTNSMVTLGCLVKGYFPEPVTVTWNSGSLSSGVHTFPAVLQSDLYTLSSSVTVPSSTWPSQTVTCNVAHPASSTKVDKKIVPRDCGCKPCICTVPEVSSVFIFPPKPKDVLTITLTPKVTCVVVAISKDDPEVQFSWFVDDVEVHTAQTKPREEQINSTFRSVSELPIMHQDWLNGKEFKCRVNSAAFGAPIEKTISKTKGRPKAPQVYTIPPPKEQMAKDKVSLTCMITNFFPEDITVEWQWNGQPAENYDNTQPIMDTDGSYFVYSDLNVQKSNWEAGNTFTCSVLHEGLHNHHTEKSLSHSPGGGGGSGGGGSGGGGSGGGGSEIVLTQSPGTLSLSPGERATLSCRASQSVSRSYLAWYQQKPGQAPRLLIIGASTRATGIPDRFSGSGSGTDFTLTISRLEPEDFAVYYCQQGQVIPPTFGQGTKVEIK
heavy 2: DVQLVESGGGLVQPGRSLKLSCAASGFIFSYFDMAWVRQAPTKGLEWVASISPSGDIPYYRDSVKGRFTVSRENAKSSLYLQMDSLRSEDTATYYCARRSYGGYSELDYWGQGVMVTVSSAKTTPPSVYPLAPGSAAQTNSMVTLGCLVKGYFPEPVTVTWNSGSLSSGVHTFPAVLQSDLYTLSSSVTVPSSTWPSQTVTCNVAHPASSTKVDKKIVPRDCGCKPCICTVPEVSSVFIFPPKPKDVLTITLTPKVTCVVVAISKDDPEVQFSWFVDDVEVHTAQTKPREEQINSTFRSVSELPIMHQDWLNGKEFKCRVNSAAFGAPIEKTISKTKGRPKAPQVYTIPPPKKQMAKDKVSLTCMITNFFPEDITVEWQWNGQPAENYKNTQPIMKTDGSYFVYSKLNVQKSNWEAGNTFTCSVLHEGLHNHHTEKSLSHSPGGGGGSGGGGSGGGGSGGGGSEVQLLESGGGLVQPGGSLRLSCAASGFTFSSHAMSWVRQAPGKGLEWVSAIWASGEQYYADSVKGRFTISRDNSKNTLYLQMNSLRAEDTAVYYCAKGWLGNFDYWGQGTLVTVSS
light: DIQMTQSPASLSASLEEIVTITCQASQDIGNWLAWYHQKPGKSPQLLIYGTSSLADGVPSRFSGSSSGSQYSLKISRLQVEDIGIYYCLQAYGAPWTFGGGTKLELKRADAAPTVSIFPPSSEQLTSGGASVVCFLNNFYPKDINVKWKIDGSERQNGVLNSWTDQDSKDSTYSMSSTLTLTKDEYERHNSYTCEATHKTSTSPIVKSFNRNEC
notes: Mouse IgG1 DAPG (D265A, P329G) with DDKK heterodimerisation; It has two anti-mouse-4-1BB Fabs (MU137-1) and one anti-FAP (28H1) VH/VL fused to the Fc C-termini; also called mouse surrogate muFAP-4-1BB; murine bispecific FAP-4-1BB antibody
As to B1, the binding result (in the experiment with murine FAP; in experiment [1]) was “binds” in each case.

The record behind these values is patent US20210095002A1 (Hoffmann-La Roche, published 2021).
